From US20250313635A1, “ANTI-INTEGRIN ANTIBODIES AND USES THEREOF” (Merck Sharp & Dohme LLC, priority 2022, published 2025) come the findings set out here.

The target of one test is hα5β1 (Homo sapiens, UniProt P05556+P08648). The test can be described thus: Human AlphaLISA integrin-ligand blocking assay (fibronectin). The test is classed as biochemical. More on the design: The full extracellular domains for all α and β integrin subunits; (GGGS)3 linker (C); acidic coiled-coil with cysteine (C); GG-Avitag (C); hexa-histidine tag (C); basic coiled-coil with cysteine (C); made in house; host or cells: Expi293 cells. Conditions: Table 11; read-out: IC50 Human integrin AlphaLISA assays hα5β1. The protocol: (§1) Integrin AlphaLISA assay. In the AlphaLISA integrin assays, we used a HEPES based buffer (25 mM HEPES pH 7.4, 137 mM NaCl, 1 mM MgCl2, 1 mM MnCl2, 2 mM CaCl2, 2.7 mM KCl, and 0.05% Tween 20). Optimal assay conditions were determined with a titration of the reagents for signal noise ratio (S/N), linear range, etc. For the respective integrins, we used the final concentrations described in Table 9.
(§2) Briefly, the testing antibody (8 μL) was added as a 4×(of Final testing concentration) solution in the HEPES buffer described previously into a 384w AlphaPlate™ (Perkin Elmer #6005350). Then the integrin and ligand were added sequentially as 8×(4 μL each). Plates were sealed and incubated at room temperature for two hours. Then 4×acceptor bead solution ([…]) was added, and the plates were resealed and incubated at room temperature (RT) for one hour. Finally, 4×([…]) donor beads solution was added in a darkened room and incubated for 45 minutes at room temperature. Plates were read on the Envision (Perkin Elmer) in AlphaScreen™ mode within three hours of donor bead addition.

For the next test, the target named is T1, hαvβ6 (Homo sapiens, UniProt P06756+P18564).
T1 construct: expressed in transfected cells
The test can be described thus: Integrin cell-based ELISA (CELISA) binding, CHOK1-human αvβ6 cells. Conditions: FIG. 3C. As to the method:
(§3) Integrin cell-based ELISA (CELISA) assay. Cell binding EC50 data for antibodies were obtained for CHOK1 parental cells and CHOK1 cells expressing human or mouse αvβ1, αvβ6, and αvβ1 integrins by cell-based ELISA. Three days prior to the assay cells were seeded at 10,000 cells per well in 100 μL/well of media in Falcon 96-well Flat-Bottom Tissue Culture Plates (REF 353916), resulting in an even cell monolayer in each well on the day of the assay. On the day of the assay, media was removed from the cells and a fivefold titration of primary antibodies was added at concentrations ranging from 0 to 200 nM in TBSF+MnCl2 buffer (25 mM Tris, 0.15 M NaCl, 0.1% BSA, 0.5 mM MnCl2, pH 7.5). Cells incubated with primary antibody solution for 1 hour at room temperature. Primary antibody was removed and plates were washed twice with 150 μL/well of 1×DPBS+Tween 20 (TEKnova Cat #β0297, diluted to 1× in distilled water GIBCO #15230-147), before adding 50 μL/well of a 1:5000 dilution of HRP-conjugated goat anti-mouse IgG (Southern Biotech, #1030-05) in TBSF+MnCl2. After 30 minutes of incubation at room temperature, secondary antibody was removed, and cells were washed twice with 150 μL/well of 1×DPBS+Tween 20. […] Absorbance was read on a TECAN plate reader at 450 nm, with a 620 nm reference wavelength.
(In general: ELISA stands for enzyme-linked immunosorbent assay.)

Another test has as its target T2, mα5β1 (Mus musculus, UniProt P09055+P11688).
T2 construct: The full extracellular domains for all α and β integrin subunits; (GGGS)3 linker (C); acidic coiled-coil with cysteine (C); GG-Avitag (C); hexa-histidine tag (C); basic coiled-coil with cysteine (C); made in house; host or cells: Expi293 cells
Kind of test: Mouse AlphaLISA integrin-ligand blocking assay (fibronectin). Format: biochemical. Conditions: Table 12; read-out: IC50 Mouse integrin AlphaLISA assays mα5β1. The protocol:
as §1, §2
For orientation: Bead proximity is the source of the signal in Alpha formats.

For the next test, the target named is T3, mαvβ1 (Mus musculus, UniProt P09055+P43406).
T3 construct: The full extracellular domains for all α and β integrin subunits; (GGGS)3 linker (C); acidic coiled-coil with cysteine (C); GG-Avitag (C); hexa-histidine tag (C); basic coiled-coil with cysteine (C); made in house; host or cells: Expi293 cells
Described as above. The test is classed as biochemical. Conditions: Table 12; read-out: IC50 Mouse integrin AlphaLISA assays mαvβ1. The protocol: as §1, §2

The target in the next test is T4, mαvβ8 (Mus musculus, UniProt P43406+Q0VBD0).
T4 construct: The full extracellular domains for all α and β integrin subunits; (GGGS)3 linker (C); acidic coiled-coil with cysteine (C); GG-Avitag (C); hexa-histidine tag (C); basic coiled-coil with cysteine (C); made in house; host or cells: Expi293 cells
The test can be described thus: Mouse AlphaLISA integrin-ligand blocking assay (LAP). The test is classed as biochemical. The conditions noted are these: Table 12; read-out: IC50 Mouse integrin AlphaLISA assays mαvβ8. As to the method:
as §1, §2

The next test has as its target T5, mαvβ6 (Mus musculus, UniProt P43406+Q9Z0T9).
T5 construct: The full extracellular domains for all α and β integrin subunits; (GGGS)3 linker (C); acidic coiled-coil with cysteine (C); GG-Avitag (C); hexa-histidine tag (C); basic coiled-coil with cysteine (C); made in house; host or cells: Expi293 cells
The test is described as above. Format: biochemical. The conditions noted are these: Table 12; read-out: IC50 Mouse integrin AlphaLISA assays mαvβ6. The protocol: as §1, §2

A further test deals with T6, mouse αvβ6 (Mus musculus, UniProt P43406+Q9Z0T9).
T6 construct: expressed in transfected cells
Kind of test: Latent TGFβ activation assay, TMLC / CHOK1-integrin co-culture (PAI-1 luciferase). Format: cell-based. Conditions: FIG. 5B. The protocol:
(§4) Latent TGFβ activation assay. Transfected mink lung epithelial cell (TMLC) cell line containing the TGFβ responsive PAI-1 promoter driving luciferase expression (Mazzieri et al, Methods Mol. Biol. 142, 13-27 (2000)) and the CHO-K1 human and mouse αvβ×integrin cell lines were grown under optimized growth conditions to 90% confluency. TMLC cells were trypsinized and plated at 25,000 cells/well in 50 μL in Costar clear bottom white walled plates. In a separate plate, 25 μL of serially diluted antibodies at 4×concentration were added to wells containing 25 μL of either 25,000 cells of human or mouse αvβ×cells. After a brief mixing, the 50 μL mixture was transferred to the TMLC cell plates for a total volume of 100 μL and incubated at 37° C. for 16 hours. 100 μL of ONE-Glo kit (#PRE6120) was added to each well and read after three to five minutes on the Envision plate reader.

A further test deals with T7, human αvβ1 (Homo sapiens, UniProt P05556+P06756).
T7 construct: expressed in transfected cells
Described as above. Conditions: FIG. 5B. Format: cell-based. As to the method: as §4

The target of another test is T8, mouse αvβ8 (Mus musculus, UniProt P43406+Q0VBD0).
T8 construct: expressed in transfected cells
Described as above. Conditions: FIG. 5B. Format: cell-based. As to the method:
as §4

Another test has as its target T9, human αvβ8 (Homo sapiens, UniProt P06756+P26012).
T9 construct: expressed in transfected cells
The test is described as above. Conditions: FIG. 5B. The test is classed as cell-based. The protocol: as §4

Another test concerns the target T10, mouse αvβ1 (Mus musculus, UniProt P09055+P43406).
T10 construct: expressed in transfected cells
The test is described as above. The test is classed as cell-based. The conditions noted are these: FIG. 5B. As to the method:
as §4

In the next test the target is T11, human αvβ6 (Homo sapiens, UniProt P06756+P18564).
T11 construct: expressed in transfected cells
The description is as above. Format: cell-based. Conditions: FIG. 5B. As to the method:
as §4

The target in another test is T12, hαvβ1 (Homo sapiens, UniProt P05556+P06756).
T12 construct: expressed in transfected cells
Kind of test: Integrin cell-based ELISA (CELISA) binding, CHOK1-human αvβ1 cells. Conditions: FIG. 3C. The protocol: as §3

For the next test, the target named is T13, mαvβ5 (Mus musculus, UniProt O70309+P43406).
T13 construct: The full extracellular domains for all α and β integrin subunits; (GGGS)3 linker (C); acidic coiled-coil with cysteine (C); GG-Avitag (C); hexa-histidine tag (C); basic coiled-coil with cysteine (C); made in house; host or cells: Expi293 cells
Kind of test: Mouse AlphaLISA integrin-ligand blocking assay (vitronectin). The test is classed as biochemical. The conditions noted are these: Table 12; read-out: IC50 Mouse integrin AlphaLISA assays mαvβ5. The protocol: as §1, §2

For another test, the target named is T14, mαvβ3 (Mus musculus, UniProt O54890+P43406).
T14 construct: The full extracellular domains for all α and β integrin subunits; (GGGS)3 linker (C); acidic coiled-coil with cysteine (C); GG-Avitag (C); hexa-histidine tag (C); basic coiled-coil with cysteine (C); made in house; host or cells: Expi293 cells
Described as above. Format: biochemical. The conditions noted are these: Table 12; read-out: IC50 Mouse integrin AlphaLISA assays mαvβ3. As to the method:
as §1, §2

The subject of test [1] is IPF patient lung fibroblasts. Kind of test: αSMA imaging, TGFβ-induced αSMA expression. The conditions noted are these: TGFβ 5 ng/mL, 48 hours, read-out: IC50 of αSMA expression. Format: cell-based, human. As to the method: αSMA imaging. Primary cells (passage 3-5) were grown on Cell carrier Ultra, collagen Type 1 coated 96-well plates (Perkin Elmer, #6055700) at a density of 25,000 cells/well. Once the cells adhere, they were starved in serum free media for 24 hours followed by addition of treatments, i.e., 5 ng/mL TGFβ (Biolegend #580702)±inhibitors. Cells were pre-treated with inhibitors for 30 minutes prior to the addition of TGFβ stimulation. 48 hours post treatment, the cells were fixed in 4% methanol free paraformaldehyde (ThermoFisher Scientific #28908) for 20 minutes at room temperature and incubated with anti-alpha smooth muscle Actin antibody (Abcam #ab7817) at 1:4000 overnight at 4° C. Following primary antibody incubation, cells were incubated with Goat anti-mouse secondary antibody (ThermoFisher Scientific #A32723) at 1:500 and Hoechst (ThermoFisher Scientific #62249) at 1:1000 for one hour at RT. The fixed and stained cells were images for immunofluorescence on Perkin Elmer's Opera Phenix high content Imager.

Chain of hα5β1 (P08648 42-995 limits assumed): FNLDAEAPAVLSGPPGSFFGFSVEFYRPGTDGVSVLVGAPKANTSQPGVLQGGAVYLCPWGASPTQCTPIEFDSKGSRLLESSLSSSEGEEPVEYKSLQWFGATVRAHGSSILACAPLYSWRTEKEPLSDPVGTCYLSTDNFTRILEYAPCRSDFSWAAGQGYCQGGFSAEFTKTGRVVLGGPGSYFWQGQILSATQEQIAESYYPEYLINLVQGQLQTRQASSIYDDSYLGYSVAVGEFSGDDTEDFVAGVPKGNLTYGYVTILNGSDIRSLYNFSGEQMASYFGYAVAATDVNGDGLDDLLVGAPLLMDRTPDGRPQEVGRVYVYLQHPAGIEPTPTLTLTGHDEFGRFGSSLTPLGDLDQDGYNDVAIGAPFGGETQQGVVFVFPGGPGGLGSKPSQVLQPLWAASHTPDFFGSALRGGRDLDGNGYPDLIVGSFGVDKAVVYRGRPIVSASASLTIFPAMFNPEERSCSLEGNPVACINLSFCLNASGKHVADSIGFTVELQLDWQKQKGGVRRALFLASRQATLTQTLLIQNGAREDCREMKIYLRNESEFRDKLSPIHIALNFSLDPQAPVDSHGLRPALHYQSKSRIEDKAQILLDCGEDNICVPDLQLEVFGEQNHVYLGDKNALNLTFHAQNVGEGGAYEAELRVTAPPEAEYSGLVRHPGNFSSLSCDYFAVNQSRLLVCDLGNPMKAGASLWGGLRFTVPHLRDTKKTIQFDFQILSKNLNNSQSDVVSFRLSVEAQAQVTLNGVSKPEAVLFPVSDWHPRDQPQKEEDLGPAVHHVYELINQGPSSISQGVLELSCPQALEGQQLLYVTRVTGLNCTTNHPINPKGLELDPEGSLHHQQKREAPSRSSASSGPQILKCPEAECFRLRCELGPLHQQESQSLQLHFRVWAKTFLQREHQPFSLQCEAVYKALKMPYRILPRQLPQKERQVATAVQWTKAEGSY
Chain of hα5β1 (P05556 21-728 limits assumed): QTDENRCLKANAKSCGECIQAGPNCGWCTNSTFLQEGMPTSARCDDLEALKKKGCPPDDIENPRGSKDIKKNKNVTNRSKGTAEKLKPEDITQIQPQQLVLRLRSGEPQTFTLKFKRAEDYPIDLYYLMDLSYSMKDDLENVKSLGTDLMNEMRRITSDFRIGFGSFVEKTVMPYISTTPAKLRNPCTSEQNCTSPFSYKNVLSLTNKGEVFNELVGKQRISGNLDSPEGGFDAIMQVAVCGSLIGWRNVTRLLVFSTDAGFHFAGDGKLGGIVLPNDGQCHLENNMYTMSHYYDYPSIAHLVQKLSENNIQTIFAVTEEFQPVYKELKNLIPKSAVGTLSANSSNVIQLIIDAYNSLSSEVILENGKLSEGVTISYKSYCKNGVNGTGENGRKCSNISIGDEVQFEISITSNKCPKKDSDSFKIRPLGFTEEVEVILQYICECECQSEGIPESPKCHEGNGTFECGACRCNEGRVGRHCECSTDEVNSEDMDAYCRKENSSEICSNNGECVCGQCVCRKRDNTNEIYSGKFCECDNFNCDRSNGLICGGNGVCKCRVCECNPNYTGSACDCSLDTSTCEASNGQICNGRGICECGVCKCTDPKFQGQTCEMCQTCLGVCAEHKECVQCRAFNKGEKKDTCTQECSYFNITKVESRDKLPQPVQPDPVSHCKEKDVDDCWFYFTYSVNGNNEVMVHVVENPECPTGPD
T6 sequence (P43406 31-1044): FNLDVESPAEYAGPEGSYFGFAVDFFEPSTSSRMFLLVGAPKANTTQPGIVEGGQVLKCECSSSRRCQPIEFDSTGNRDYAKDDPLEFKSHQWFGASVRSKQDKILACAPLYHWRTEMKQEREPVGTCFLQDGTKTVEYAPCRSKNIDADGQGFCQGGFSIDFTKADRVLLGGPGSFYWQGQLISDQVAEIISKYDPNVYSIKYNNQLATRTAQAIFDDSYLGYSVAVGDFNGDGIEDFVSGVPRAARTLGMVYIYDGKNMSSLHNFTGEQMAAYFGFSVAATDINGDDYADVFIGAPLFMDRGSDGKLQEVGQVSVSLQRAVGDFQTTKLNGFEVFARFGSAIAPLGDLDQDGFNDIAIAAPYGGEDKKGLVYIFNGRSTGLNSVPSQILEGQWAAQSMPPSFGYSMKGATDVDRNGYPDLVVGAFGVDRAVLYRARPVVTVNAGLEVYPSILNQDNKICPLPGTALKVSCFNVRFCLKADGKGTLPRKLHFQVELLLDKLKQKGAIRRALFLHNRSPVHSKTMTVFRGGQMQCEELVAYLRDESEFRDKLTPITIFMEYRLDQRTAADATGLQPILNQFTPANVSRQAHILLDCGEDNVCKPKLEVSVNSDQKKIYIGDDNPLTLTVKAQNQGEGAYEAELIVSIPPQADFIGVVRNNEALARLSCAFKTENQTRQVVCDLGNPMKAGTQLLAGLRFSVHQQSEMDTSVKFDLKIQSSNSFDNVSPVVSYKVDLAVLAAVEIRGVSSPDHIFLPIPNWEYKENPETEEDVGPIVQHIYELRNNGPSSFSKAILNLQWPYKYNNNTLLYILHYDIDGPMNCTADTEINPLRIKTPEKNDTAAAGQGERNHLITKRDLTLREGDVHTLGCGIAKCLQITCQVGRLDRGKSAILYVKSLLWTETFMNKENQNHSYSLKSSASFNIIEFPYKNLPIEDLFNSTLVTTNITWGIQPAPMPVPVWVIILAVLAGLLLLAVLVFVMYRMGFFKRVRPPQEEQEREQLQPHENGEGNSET
T6 sequence (Q9Z0T9 22-787): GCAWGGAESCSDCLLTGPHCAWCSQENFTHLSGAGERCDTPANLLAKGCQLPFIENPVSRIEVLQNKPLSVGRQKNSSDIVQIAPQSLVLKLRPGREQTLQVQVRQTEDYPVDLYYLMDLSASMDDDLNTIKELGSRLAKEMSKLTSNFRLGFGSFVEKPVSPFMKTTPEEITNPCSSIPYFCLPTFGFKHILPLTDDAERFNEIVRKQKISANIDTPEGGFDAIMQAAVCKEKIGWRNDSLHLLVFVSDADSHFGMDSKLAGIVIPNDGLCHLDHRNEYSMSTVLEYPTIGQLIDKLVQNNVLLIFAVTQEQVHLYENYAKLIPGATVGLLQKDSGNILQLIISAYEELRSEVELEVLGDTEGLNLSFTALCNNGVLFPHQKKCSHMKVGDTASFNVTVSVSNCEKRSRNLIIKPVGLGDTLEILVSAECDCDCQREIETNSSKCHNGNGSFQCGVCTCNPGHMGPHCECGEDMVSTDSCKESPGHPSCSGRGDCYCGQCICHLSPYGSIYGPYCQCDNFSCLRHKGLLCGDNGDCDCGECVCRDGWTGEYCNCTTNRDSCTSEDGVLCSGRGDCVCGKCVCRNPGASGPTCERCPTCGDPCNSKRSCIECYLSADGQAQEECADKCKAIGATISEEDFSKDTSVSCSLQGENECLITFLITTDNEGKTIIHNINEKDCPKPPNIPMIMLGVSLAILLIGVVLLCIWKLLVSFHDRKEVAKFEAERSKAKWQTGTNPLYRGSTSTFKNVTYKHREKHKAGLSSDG
T10 sequence (P43406 31-1044): as the sequence (P43406 31-1044) above
T10 sequence (P09055 21-798): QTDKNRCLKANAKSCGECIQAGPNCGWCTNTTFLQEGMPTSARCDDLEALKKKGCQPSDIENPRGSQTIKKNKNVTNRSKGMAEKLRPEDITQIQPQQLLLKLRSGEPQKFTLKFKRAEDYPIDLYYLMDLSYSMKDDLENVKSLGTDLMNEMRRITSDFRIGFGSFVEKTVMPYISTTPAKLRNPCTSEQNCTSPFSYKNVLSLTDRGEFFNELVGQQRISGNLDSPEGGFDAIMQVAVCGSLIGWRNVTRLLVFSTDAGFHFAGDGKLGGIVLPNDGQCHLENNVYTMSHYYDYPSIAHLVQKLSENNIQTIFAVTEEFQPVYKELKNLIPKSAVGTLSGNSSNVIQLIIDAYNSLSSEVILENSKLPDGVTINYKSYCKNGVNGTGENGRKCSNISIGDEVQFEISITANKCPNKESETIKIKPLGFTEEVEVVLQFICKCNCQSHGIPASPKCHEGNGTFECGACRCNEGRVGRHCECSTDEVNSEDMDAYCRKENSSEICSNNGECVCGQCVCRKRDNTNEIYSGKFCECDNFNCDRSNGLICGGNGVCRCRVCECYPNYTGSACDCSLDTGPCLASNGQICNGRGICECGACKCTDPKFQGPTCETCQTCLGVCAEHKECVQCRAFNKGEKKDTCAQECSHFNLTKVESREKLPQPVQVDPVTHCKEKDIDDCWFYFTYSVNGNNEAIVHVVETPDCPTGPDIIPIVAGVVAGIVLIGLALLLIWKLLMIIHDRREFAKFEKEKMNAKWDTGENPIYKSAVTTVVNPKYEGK
T8 sequence (P43406 31-1044): as the sequence (P43406 31-1044) above
T8 sequence (Q0VBD0 43-767 limits assumed): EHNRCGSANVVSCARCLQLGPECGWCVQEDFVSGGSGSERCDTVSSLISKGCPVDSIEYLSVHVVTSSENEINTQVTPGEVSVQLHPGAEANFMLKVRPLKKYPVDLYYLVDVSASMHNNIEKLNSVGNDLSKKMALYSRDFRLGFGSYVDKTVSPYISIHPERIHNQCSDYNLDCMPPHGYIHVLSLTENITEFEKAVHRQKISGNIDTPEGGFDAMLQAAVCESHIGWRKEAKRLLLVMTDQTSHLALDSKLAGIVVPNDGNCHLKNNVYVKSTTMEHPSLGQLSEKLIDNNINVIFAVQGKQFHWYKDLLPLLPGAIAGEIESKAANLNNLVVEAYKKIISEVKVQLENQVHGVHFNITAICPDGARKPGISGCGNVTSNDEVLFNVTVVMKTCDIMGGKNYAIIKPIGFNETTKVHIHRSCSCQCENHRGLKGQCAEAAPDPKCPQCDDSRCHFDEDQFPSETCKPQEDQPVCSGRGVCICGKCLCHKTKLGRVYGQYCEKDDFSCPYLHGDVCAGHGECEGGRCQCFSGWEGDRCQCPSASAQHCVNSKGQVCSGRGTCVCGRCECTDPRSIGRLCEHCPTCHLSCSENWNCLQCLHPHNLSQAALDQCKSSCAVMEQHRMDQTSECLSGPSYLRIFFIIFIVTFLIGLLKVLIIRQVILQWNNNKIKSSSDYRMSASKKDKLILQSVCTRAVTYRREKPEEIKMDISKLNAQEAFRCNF

B1: mAb-24: control antibody abituzumab; 17E6, a therapeutic pan-αv integrin antibody (antibody, chains of the INN, looked up, V domains shown)
VH: QVQLQQSGGELAKPGASVKVSCKASGYTFSSFWMHWVRQAPGQGLEWIGYINPRSGYTEYNEIFRDKATMTTDTSTSTAYMELSSLRSEDTAVYYCASFLGRGAMDYWGQGTTVTVSS
VL: DIQMTQSPSSLSASVGDRVTITCRASQDISNYLAWYQQKPGKAPKLLIYYTSKIHSGVPSRFSGSGSGTDYTFTISSLQPEDIATYYCQQGNTFPYTFGQGTKVEIK
The IC50 is the concentration at which inhibition is half-maximal. On to B1, for which the IC50 with hα5β1, in the test with mα5β1, with mαvβ1, in the test with mαvβ8, in the test with mαvβ6 and with mαvβ5 was > 0.25 µM throughout. Besides, the IC50 was > 0.25 µM in the test with mαvβ3 and > 1 µM in [1]. Moreover, the “binding to human αvβ6 integrin in CELISA” value in the test with hαvβ6 is “preferentially bound”. The “inhibition of latent TGFβ activation, mouse αvβ6 co-culture” value with mouse αvβ6 is “minimal activity”. The “inhibition of latent TGFβ activation, human αvβ1 co-culture” value with human αvβ1 was “potent”. For the same molecule, the “inhibition of latent TGFβ activation, mouse αvβ8 co-culture” value in the test with mouse αvβ8 was “minimal activity”. The “inhibition of latent TGFβ activation, human αvβ8 co-culture” value in the test with human αvβ8 is listed as “potent”. The “inhibition of latent TGFβ activation, mouse αvβ1 co-culture” value with mouse αvβ1 was “minimal activity”. Moreover, in the test with human αvβ6, the “inhibition of latent TGFβ activation, human αvβ6 co-culture” value is recorded as “potent”. Besides, in the test with hαvβ1, the “binding to human αvβ1 integrin in CELISA” value is given as “preferentially bound”.
